Data published in patent US20180312587A1 (ADURO BIOTECH HOLDINGS EUROPE B V, published 2018).
Like-named read-outs stand apart in the source and are kept apart here.

Tests used:
human SIRPα variant 1 [1] = biological target: T1, human SIRPα variant 1 (human, UniProt P78324 31-504); experiment: CELISA, CHO-K1 transfectants
T1 construct: full length ORF on transfected CHO-K1 or HEK293 cells; entry includes the signal peptide; also called hSIRPαV1; SIRPαV1
Experimental: (§1) Reactivity was confirmed using CHO-K1 cells (ATCC CCL-61) expressing a cDNA encoding the full length open reading frame of hSIRPαV1, hSIRPαV1(P74A), hSIRPαV2, and hSIRPβ1 subcloned into the pCI-neo vector (Promega, Madison, Wis.). CHO-K1.hSIRPαV1, CHO-K1.hSIRPαV1(P74A), CHO-K1.hSIRPαV2, and CHO-K1.hSIRPβ1 cells were seeded in culture medium (DMEM-F12 (Gibco) supplemented with 5% New Born Calf Serum (BioWest) and Pen/Strep (Gibco)) in 96-well flat-bottom tissue culture plates and incubated at 37° C., 5% CO₂ and 95% humidity for 24 hours. Subsequently, culture medium was removed and cells were incubated for 1 hour at 37° C., 5% CO₂ and 95% humidity with purified hSIRPα antibodies (used at 10 μg/mL and dilutions thereof). Next, cells were washed with PBS-T and incubated for 1 hour at 37° C., 5% CO₂ and 95% humidity with goat-anti-mouse IgG-HRP (Southern Biotech). Subsequently, cells were washed three times with PBS-T and immunoreactivity against hSIRPαV1, hSIRPαV1(P74A), hSIRPαV2, and hSIRPβ1 was visualized with TMB Stabilized Chromogen (Invitrogen). Reactions were stopped with 0.5 M H₂SO₄ and absorbances were read at 450 and 610 nm.

human SIRPβ1 [2] = biological target: T2, human SIRPβ1 (human, UniProt O00241 30-398); experiment: CELISA, CHO-K1 transfectants
T2 construct: also called hSIRPβ1
Experimental: as §1

hSIRPαV1(P74A) [3] = biological target: T3, hSIRPαV1(P74A) (human, UniProt P78324 31-504); experiment: CELISA, CHO-K1 transfectants
T3 construct: also called P74A variant of hSIRPαV1
Experimental: as §1

human SIRPα variant 1 [4] = biological target: T1, human SIRPα variant 1; experiment: CELISA, CHO-K1 transfectants; remark: listed apart in the source
Experimental: (§2) The specificity of monoclonal anti-hSIRPα antibodies (e.g., including the hSIRPα antibodies known in the art, KWAR23 ([…]. Patent CA2939293 A1), 18D5 (Patent WO2017/178653 A2), and various commercially available hSIRPα antibodies) for binding to hSIRPαV1, hSIRPαV1(P74A), and hSIRPβ1 was evaluated by CELISA. Reactivity was confirmed using CHO-K1 cells (ATCC CCL-61) expressing a cDNA encoding the full length open reading frame of hSIRPαV1, hSIRPαV1(P74A), and hSIRPβ1 subcloned into the pCI-neo vector (Promega, Madison, Wis.). CHO-K1.hSIRPαV1, CHO-K1.hSIRPαV1(P74A), and CHO-K1.hSIRPβ1 cells were seeded in culture medium (DMEM-F12 (Gibco) supplemented with 5% New Born Calf Serum (BioWest) and Pen/Strep (Gibco)) in 96-well flat-bottom tissue culture plates and incubated at 37° C., 5% CO₂ and 95% humidity for 24 hours. Subsequently, culture medium was removed and cells were incubated for 1 hour at 37° C., 5% CO₂ and 95% humidity with purified hSIRPα antibodies (used at 10 μg/ml and dilutions thereof). Next, cells were washed with PBS-T and incubated for 1 hour at 37° C., 5% CO₂ and 95% humidity with either goat-anti-mouse IgG-HRP (Southern Biotech), goat-anti-human IgG-HRP (Jackson Immuno Research), or goat-anti-rabbit IgG-HRP (Southern Biotech). Subsequently, cells were washed three times with PBS-T and immunoreactivity against hSIRPαV1, hSIRPαV1(P74A), and hSIRPβ1 was visualized with TMB Stabilized Chromogen (Invitrogen). Reactions were stopped with 0.5 M H₂SO₄ and absorbances were read at 450 and 610 nm.

human SIRPβ1 [5] = biological target: T2, human SIRPβ1; experiment: CELISA, CHO-K1 transfectants; remark: listed apart in the source
Experimental: as §2

hSIRPαV1(P74A) [6] = biological target: T3, hSIRPαV1(P74A); experiment: CELISA, CHO-K1 transfectants; remark: listed apart in the source
Experimental: as §2

human SIRPα variant 2 = biological target: T4, human SIRPα variant 2 (human, UniProt P78324 31-504); experiment: CELISA, CHO-K1 transfectants; nd = not detected
T4 construct: full length ORF on transfected CHO-K1 cells; also called hSIRPαV2; SIRPαV2
Experimental: as §1

human SIRPγ = biological target: T5, human SIRPγ (human, UniProt Q9P1W8 29-387); experiment: flow cytometry, Jurkat E6.1 cells; nd = not detected
T5 construct: on transfected CHO-K1 cells; also called hSIRPγ
Experimental: Binding to hSIRPγ was assessed by flow cytometry using the Jurkat E6.1 T cell leukemia cell line (ECACC 88042803). Jurkat cells were seeded in 96-well round bottomed tissue culture plates and incubated for 40 minutes with the anti-hSIRPα antibodies (20 μg/mL and dilutions thereof) in PBS/1% BSA at 4° C. […] After this labeling procedure, cells were washed two times, resuspended in PBS/1% BSA, containing 0.1 μg/mL DAPI (BioLegend), and analysed by flow cytometry on the FACSVerse (BD Biosciences). Data were processed and analysed with FlowJo V10 software (FlowJo, LLC).

human SIRPα variant 1 [7] = biological target: T1, human SIRPα variant 1; experiment: flow cytometry, blockade of DyLight488-hCD47/Fc binding to U-937 cells
Experimental: hCD47 blockade for the KWAR23, clone 18D5, and hSIRPα.40A antibodies was assessed by flow cytometry. For this purpose, THP-1 (ATCC TIB-202) and U-937 (ATCC CRL-1593.2) monocyte cell lines were used as the source of hSIRPα in the assay. THP-1 and U-937 cells were seeded in 96-well round bottomed tissue culture plates and incubated for 45 minutes with FcR Blocking Reagent (Miltenyi Biotec) and indicated anti-hSIRPα antibodies (20 μg/mL and dilutions thereof) in PBS/1% BSA at 4° C. […] After this labeling procedure, cells were washed two times, resuspended in PBS/1% BSA containing 0.1 μg/mL DAPI (BioLegend), and analysed by flow cytometry on the FACSVerse (BD Biosciences). Data were processed and analysed with FlowJo V10 software (FlowJo, LLC) and plotted using GraphPad Prism 6 (GraphPad Software, Inc.). Binding of recombinant hCD47 fused to an Fc domain of human IgG1 was monitored in the presence of increasing amounts of the anti-hSIRPα antibodies. […] IC50 values represent the concentration at which half of the inhibition is observed.

T1 sequence (P78324 31-504 limits assumed, change not shown): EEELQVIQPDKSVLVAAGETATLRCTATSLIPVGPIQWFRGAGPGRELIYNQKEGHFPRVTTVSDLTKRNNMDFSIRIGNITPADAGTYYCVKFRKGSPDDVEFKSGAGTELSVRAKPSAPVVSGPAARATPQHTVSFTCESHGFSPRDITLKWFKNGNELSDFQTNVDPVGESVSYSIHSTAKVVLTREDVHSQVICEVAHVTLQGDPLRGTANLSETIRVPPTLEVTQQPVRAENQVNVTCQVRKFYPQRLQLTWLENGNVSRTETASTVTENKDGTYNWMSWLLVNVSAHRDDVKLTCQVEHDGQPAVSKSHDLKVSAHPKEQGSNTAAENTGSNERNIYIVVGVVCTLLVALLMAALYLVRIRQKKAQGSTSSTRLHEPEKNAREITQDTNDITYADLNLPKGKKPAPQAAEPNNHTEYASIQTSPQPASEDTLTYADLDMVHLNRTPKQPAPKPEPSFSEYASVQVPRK
T3 sequence (P78324 31-504 P74A limits assumed): as the sequence (P78324 31-504 limits assumed, change not shown) above, with P44A counted along it
T2 sequence (O00241 30-398 limits assumed): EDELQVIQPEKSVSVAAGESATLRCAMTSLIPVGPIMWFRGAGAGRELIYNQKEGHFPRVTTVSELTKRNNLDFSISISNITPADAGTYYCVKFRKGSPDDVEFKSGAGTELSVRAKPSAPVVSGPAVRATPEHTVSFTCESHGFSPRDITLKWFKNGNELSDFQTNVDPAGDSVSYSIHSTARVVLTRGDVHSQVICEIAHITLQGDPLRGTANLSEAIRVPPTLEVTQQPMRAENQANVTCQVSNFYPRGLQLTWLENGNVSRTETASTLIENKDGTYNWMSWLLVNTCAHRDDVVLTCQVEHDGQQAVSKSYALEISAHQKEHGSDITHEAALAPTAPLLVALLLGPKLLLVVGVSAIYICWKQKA
T4 sequence (P78324 other isoform, or with tags, fused parts or gaps mutant limits assumed): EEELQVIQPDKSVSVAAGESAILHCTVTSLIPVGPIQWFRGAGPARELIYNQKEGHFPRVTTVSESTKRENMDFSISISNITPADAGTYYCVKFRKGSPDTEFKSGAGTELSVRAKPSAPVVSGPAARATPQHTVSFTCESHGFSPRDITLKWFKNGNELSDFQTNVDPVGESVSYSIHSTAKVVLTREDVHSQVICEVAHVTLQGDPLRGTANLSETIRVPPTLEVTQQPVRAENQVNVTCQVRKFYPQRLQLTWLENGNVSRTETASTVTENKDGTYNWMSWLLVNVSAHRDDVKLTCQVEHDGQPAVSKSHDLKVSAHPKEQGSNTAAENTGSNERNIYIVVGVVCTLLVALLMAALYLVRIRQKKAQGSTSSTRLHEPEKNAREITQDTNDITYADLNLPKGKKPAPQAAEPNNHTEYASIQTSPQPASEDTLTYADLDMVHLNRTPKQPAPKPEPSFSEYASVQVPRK
T5 sequence (Q9P1W8 29-387 limits assumed): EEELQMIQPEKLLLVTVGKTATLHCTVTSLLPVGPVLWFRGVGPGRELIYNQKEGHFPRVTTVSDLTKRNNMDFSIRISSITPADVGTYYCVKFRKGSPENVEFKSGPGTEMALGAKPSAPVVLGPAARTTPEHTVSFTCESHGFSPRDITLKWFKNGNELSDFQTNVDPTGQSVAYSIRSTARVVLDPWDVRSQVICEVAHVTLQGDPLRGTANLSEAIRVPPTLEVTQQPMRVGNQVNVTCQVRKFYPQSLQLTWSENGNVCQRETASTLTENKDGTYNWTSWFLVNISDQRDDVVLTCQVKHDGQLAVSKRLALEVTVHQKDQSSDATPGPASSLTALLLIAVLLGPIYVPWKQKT

B1: 18D5 (antibody, V domains shown)
VH: QVQLQQPGAELVRPGSSVKLSCKASGYTFTSYWVHWVKQRPIQGLEWIGNIDPSDSDTHYNQKFKDKASLTVDKSSSTAYMQLSSLTFEDSAVYYCVRGGTGTMAWFAYWGQGTLVTVSA
VL: DVVMTQTPLSLPVSLGDQASISCRSSQSLVHSYGNTYLYWYLQKPGQSPKLLIYRVSNRFSGVPDRFSGSGSGTDFTLKISRVEAEDLGVYFCFQGTHVPYTFGSGTKLEIK
notes: from WO2017/178653; also called clone 18D5
Human SIRPα variant 1 [1]
  EC50: 0.134 nM
Human SIRPβ1 [2]
  EC50: 0.055 nM
hSIRPαV1(P74A) [3]
  EC50: 0.055 nM
Human SIRPα variant 1 [4]
  EC50: 0.128 nM
Human SIRPβ1 [5]
  EC50: 0.064 nM
hSIRPαV1(P74A) [6]
  EC50: 0.073 nM
Human SIRPα variant 2
  binding result: no binding (tested: 10 µg/mL and dilutions thereof)
Human SIRPγ
  binding result: no binding (tested: 20 µg/mL and dilutions thereof)
Human SIRPα variant 1 [7]
  IC50: 1.52 nM
